For orientation: stoichiometry N means a count of units in the complex or per binding partner.

Results on 1 substance are retold here after article PMC6358098.

For the test, the target named is recombinant protruding (P) domain of Macrobrachium rosenbergii nodavirus capsid protein (MrNV-CP) (Macrobrachium rosenbergii nodavirus). Put plainly: SEC; HiPrep 16/60 Sephacryl S-200 HR, Tris-HCl buffer (20 mM Tris-HCl, 100 mM NaCl, pH 7.6); elution profile overlaid with those of standard protein markers.

On to “recombinant protruding (P) domain of Macrobrachium rosenbergii nodavirus capsid protein (MrNV-CP) (domain or fragment)”, for which the stoichiometry N came out at 2.
